# Measurements: US20230235040A1 (ALMIRALL S A, published 2023)
# Changes are numbered by the printed parent chain.
# B1: mAb7.0 Fab (yeast clone culture supernatant) (Fab, V domains shown)
# VH: QVQLVESGGGVVQPGRSLRLSCAASGFTFSSYGMHWVRQAPGKGLEWVAVISYGGSERYYADSVKGRFTISRDNSKNTLYLQMNSLRAEDTAVYYCAREPWYSSRGWTGYGFDVWGQGTLVTVSS
# VL: EIVLTQSPGTLSLSPGERATLSCRASQSVSSNYLAWYQQKPGQAPKLLIYSASSLQSGVPSRFSGSGSGTDFTLTISSLQPEDFATYYCQQTYSYPPTFGQGTKVEIK
# notes: Human Fab secreted by the yeast clone, not purified
# B2: mAb8.0 Fab (yeast clone culture supernatant) (Fab, V domains shown)
# VH: QVQLVQSGAEVKKPGSSVKVSCKASGGTFSNYAISWVRQAPGQGLEWMGGILPILGTVDYAQKFQGRVTITADESTSTAYMELSSLRSEDTAVYYCAREPWYRLGAFDVWGQGTLVTVSS
# VL: DIQMTQSPSSLSASVGDRVTITCRASQTIYKYLNWYQQKPGKAPKLLIYAASSLQSGVPSRFSGSGSGTDFTLTISSLQPEDFATYYCQQYSSIPYTFGQGTKVEIK
# notes: as for B1
# B3: mAb6.0 Fab (purified, lysyl-C cleaved from recombinant IgG1) (Fab, V domains shown)
# VH: QLQLQESGPGLVKPSETLSLTCTVSGGSITSSNYYWGWIRQPPGKGLEWIGSIDYTGSTYYNPSLKSRVTISVDTSKNQFSLKLSSVTAADTAVYYCARGKYYETYLGFDVWGQGTLVTVSS
# VL: QSVLTQPPSVSGAPGQRVTISCTGSSSNIGAGYDVHWYQQLPGTAPKLLIYGNTNRPSGVPDRFSGSKSGTSASLAITGLQAEDEADYYCQSYDISLSGWVFGGGTKLTVL
# notes: also called purified mAb6.0 Fab
# B4: mAb2 Fab (Fab, V domains shown)
# VH: ELQLQESGPGLVKPSETLSLTCTVSGGSISTSSYYWGWIRQPPGKGLEWIGSIYYTGNTYYNPSLKSRVTISVDTSKNQFSLKLSSVTAADTAVYYCARVRYGVGVPRYFDPWGQGTLVTVSS
# VL: B3 VL with Q1E, G32H, T54D, I95Y, W100Y
# B5: mAb6.0 Fab (yeast clone culture supernatant) (Fab, V domains shown)
# VH: B3 VH
# VL: B3 VL
# notes: as for B1
# B6: mAb2.0 Fab (purified, lysyl-C cleaved from recombinant IgG1) (Fab, V domains shown)
# VH: B4 VH with E1Q
# VL: B3 VL with G32H, T54D, I95Y, W100Y
# notes: also called purified mAb2.0 Fab
# B7: mAb2.10 Fab (Fab, V domains shown)
# VH: B4 VH with T31D, N58E, N62A, Y109H
# VL: B3 VL with Q1E, G32H, T54D, I95Y, W100Y
# notes: Recombinant Fab with 8xHis tag (Expi293F)
# B8: mAb2.11 Fab (Fab, V domains shown)
# VH: B4 VH with T31E, N58E, N62A, V100L
# VL: B3 VL with Q1E, G32H, T54D, I95Y, W100Y
# notes: as for B7
# Tests used:
# [1] = biological target: T1, cy-IL-36β (cynomolgus monkey IL-36β, W5-E157) (cynomolgus monkey); experiment: ELISA on coated cy- and hu-IL-36β, yeast Fab supernatant; ratio of OD450
# T1 construct: Purification tag cleaved off
# T1 chain: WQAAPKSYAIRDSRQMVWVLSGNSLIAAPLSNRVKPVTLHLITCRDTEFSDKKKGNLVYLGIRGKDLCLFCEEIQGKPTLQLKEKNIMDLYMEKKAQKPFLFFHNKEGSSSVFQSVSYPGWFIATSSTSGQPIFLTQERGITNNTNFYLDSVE
# Protocol: Cell supernatants from yeast clones of interest were tested for binding to human IL-36 by ELISA as described above. To compare the binding of these supernatants to human and cynomolgus monkey IL-36, IL-36 proteins were coated at 2.5 μg/mL on 96-well Nunc MaxiSorp plates (Thermo Fisher) and the plates blocked with 5% goat serum in PBS. Yeast supernatants were diluted 1:1 with PBST containing 1% w/v BSA and added to the ELISA plates for 1-1.5 hours with agitation. Bound Fab was detected by incubating the plates with F(ab′)2-HRP (Jackson ImmunoResearch). The ELISAs were developed for 3-10 minutes by addition of 50 μL/well of tetramethylbenzidine (TMB) microwell peroxidase substrate (Scytek Laboratories, Inc., Logan, Utah, USA) and enzymatic color development was stopped by acidification with 50 µL/well of 2 N H₂SO₄ (Sigma-Aldrich Corporation, St. Louis, Mo., USA). The optical density of the samples at a wavelength of 450 nm (OD450) was analyzed with a SpectraMax i3X plate reader (Molecular Devices LLC, San Jose, Calif., USA). To estimate the relative affinity of each clone for cynomolgus monkey IL-36 and human IL-36 in this assay, a ratio of OD450 (OD450_cyIL-36/OD450_huIL-36) was calculated for each clone and IL-36 cytokine.
# [2] = biological target: T2, hu-IL-36β (human IL-36β, N-terminally truncated active form R5-E157) (human); experiment: ELISA, yeast Fab supernatant, anti-Fab-HRP
# T2 construct: Purification tag cleaved off; Biotinylated where captured; also called hu-IL-36b
# T2 chain: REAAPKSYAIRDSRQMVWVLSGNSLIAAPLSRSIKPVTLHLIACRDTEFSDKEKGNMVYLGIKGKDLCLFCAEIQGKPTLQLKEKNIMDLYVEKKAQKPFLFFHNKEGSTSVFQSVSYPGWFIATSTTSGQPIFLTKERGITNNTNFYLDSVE
# [3] = biological target: T2, hu-IL-36β (human IL-36β, N-terminally …); experiment: cell-based or functional assay
# [4] = biological target: T2, hu-IL-36β (human IL-36β, N-terminally …); experiment: SPR (Biacore 8K), biotinylated IL-36 captured on CAP chip, Fab injected, 37°C
# Protocol: (§1) Briefly, a 1:4 dilution of Biotin CAPture Reagent (GE Healthcare, Chicago, Ill., USA)) into HBS-EP buffer (GE Healthcare, Chicago, Ill., USA; 0.01 M HEPES pH 7.4, 0.15 M NaCl, 3 mM EDTA, 0.005% Surfactant P20) was applied to a CAP sensor chip at 2 μL/min flow rate. […] FC1 was kept as a reference. […] The sensorgram was recorded and subject to reference and buffer subtraction before data analysis with the BIACORE® 8K Evaluation Software (GE Healthcare, Chicago, Ill., USA; version 1.1.1.7442). Association rates (kₒₙ) and dissociation rates (koff) were calculated using a simple one-to-one Langmuir binding model. The equilibrium dissociation constant (KD) was calculated as the ratio of koff/kₒₙ.
# [5] = biological target: T2, hu-IL-36β (human IL-36β, N-terminally …); experiment: SPR (Biacore 8K), biotinylated IL-36 captured on CAP chip, Fab injected, 25°C
# Protocol: as §1
# [6] = biological target: T3, hu-IL-36α (human IL-36α, N-terminally truncated active form K6-F158) (human, UniProt Q9UHA7 6-158); experiment: phage competition ELISA: Fab on phage, soluble hu-IL-36α titrated against coated hu-IL-36α
# T3 construct: Purification tag cleaved off; Biotinylated where captured (SPR, some ELISAs); also called hu-IL-36a
# T3 sequence: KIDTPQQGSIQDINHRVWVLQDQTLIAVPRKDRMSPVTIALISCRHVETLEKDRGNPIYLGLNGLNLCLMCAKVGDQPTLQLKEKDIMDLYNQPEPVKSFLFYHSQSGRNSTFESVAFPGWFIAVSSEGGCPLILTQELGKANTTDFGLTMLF
# Protocol: (§2) Selected phages with top binding signal were purified to perform phage competition ELISA. The optimal phage concentration was incubated with serially-diluted human IL-36α or human IL-36γ in ELISA buffer in NUNC F plate for two hours. 80 μL of the mixture was transferred to human IL-36α or human IL-36γ coated wells for 15 min to capture unbound phage. The plate was washed with wash buffer (0.05% TWEEN®20 in PBS), and HRP-conjugated anti-M13 antibody (Sino biological, Cat #11973-MM05-H-50) was added in ELISA buffer for 30 min. The plates were washed and developed as described above. The absorbance at 450 nm was plotted as a function of antigen concentration in solution to determine phage IC50.
# [7] = biological target: T3, hu-IL-36α (human IL-36α, N-terminally …); experiment: cell-based or functional assay
# [8] = biological target: T4, hu-IL-36γ (human IL-36γ, N-terminally truncated active form S18-D169) (human, UniProt Q9NZH8 18-169); experiment: cell-based or functional assay
# T4 sequence: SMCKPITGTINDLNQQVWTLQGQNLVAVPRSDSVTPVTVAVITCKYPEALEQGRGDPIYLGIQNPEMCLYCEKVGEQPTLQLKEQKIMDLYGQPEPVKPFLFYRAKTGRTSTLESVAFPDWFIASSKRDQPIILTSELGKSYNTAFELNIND
# [9] = biological target: T3, hu-IL-36α (human IL-36α, N-terminally …); experiment: SPR (Biacore 8K), biotinylated hu-IL-36 captured on CAP chip, Fab injected, 37°C
# Protocol: (§3) Briefly, a 1:4 dilution of Biotin CAPture Reagent (GE) into HBS-EP buffer (0.01 M HEPES pH 7.4, 0.15 M NaCl, 3 mM EDTA, 0.005% Surfactant P20) was applied to a CAP sensor chip at 2 uL/min flow rate. For kinetics measurements, 3 nM biotinylated human IL-36α and human IL-36γ was captured at 10 uL/min to achieve ˜50 response units in the second flow cell (FC2). FC1 was kept as a reference. […] The sensorgram was recorded and subject to reference and buffer subtraction before evaluating by BIACORE® 8K Evaluation Software (version 1.1.1.7442). Association rates (kₒₙ) and dissociation rates (koff) were calculated using a simple one-to-one Langmuir binding model.
# [10] = biological target: T4, hu-IL-36γ (human IL-36γ, N-terminally …); experiment: as above
# Protocol: as §3
# [11] = biological target: T4, hu-IL-36γ (human IL-36γ, N-terminally …); experiment: phage competition ELISA: Fab on phage, soluble hu-IL-36γ titrated against coated hu-IL-36γ
# Protocol: as §2
# [12] = biological target: T3, hu-IL-36α (human IL-36α, N-terminally …); experiment: SPR (Biacore 8K), biotinylated IL-36 captured on CAP chip, Fab injected, 37°C
# Protocol: as §1
# [13] = biological target: T4, hu-IL-36γ (human IL-36γ, N-terminally …); experiment: as above
# Protocol: as §1
# [14] = biological target: T3, hu-IL-36α (human IL-36α, N-terminally …); experiment: SPR (Biacore 8K), biotinylated IL-36 captured on CAP chip, Fab injected, 25°C
# Protocol: as §1
# [15] = biological target: T4, hu-IL-36γ (human IL-36γ, N-terminally …); experiment: as above
# Protocol: as §1
binder,measurement,setting,value
B1,ELISA OD450cyIL-36/OD450hu-IL-36,[1],3.9 ratio
same,ELISA OD450,[2],2.58 OD450
same,"% Inhibition, HEK-Blue IL-36R SEAP reporter assay",[3],84%
B2,ELISA OD450,[2],2.63 OD450
same,"% Inhibition, HEK-Blue IL-36R SEAP reporter assay",[3],85%
B3,Kd,[4],1930 pM
same,koff,[4],0.000118 s⁻¹
same,kon,[4],61100 M⁻¹ s⁻¹
same,Kd,[5],1790 pM
same,koff,[5],7.23e-05 s⁻¹
same,kon,[5],40400 M⁻¹ s⁻¹
B4,apparent IC50 (pooled screen),[6],1200 pM
same,"IC50, IL-36-stimulated IL-8 secretion by HaCat cells",[7],300 pM
same,"IC50, IL-36-stimulated IL-8 secretion by HaCat cells",[8],960 pM
same,apparent Kd (pooled screen),[9],230 pM
same,apparent koff (pooled screen),[9],0.000264 s⁻¹
same,apparent kon (pooled screen),[9],1.16e+06 M⁻¹ s⁻¹
same,apparent Kd (pooled screen),[10],410 pM
same,apparent koff (pooled screen),[10],0.000574 s⁻¹
same,apparent kon (pooled screen),[10],1.39e+06 M⁻¹ s⁻¹
same,apparent IC50 (pooled screen),[11],3200 pM
B5,ELISA OD450cyIL-36/OD450hu-IL-36,[1],4 ratio
same,ELISA OD450,[2],2.34 OD450
same,"% Inhibition, HEK-Blue IL-36R SEAP reporter assay",[3],86%
B6,Kd,[12],300 pM
same,koff,[12],0.000502 s⁻¹
same,kon,[12],1.69e+06 M⁻¹ s⁻¹
same,Kd,[13],1610 pM
same,koff,[13],0.00108 s⁻¹
same,kon,[13],671000 M⁻¹ s⁻¹
same,Kd,[14],1200 pM
same,koff,[14],0.000413 s⁻¹
same,kon,[14],345000 M⁻¹ s⁻¹
same,Kd,[15],980 pM
same,koff,[15],0.000358 s⁻¹
same,kon,[15],366000 M⁻¹ s⁻¹
B7,"IC50, IL-36-stimulated IL-8 secretion by HaCat cells",[7],380 pM
same,"IC50, IL-36-stimulated IL-8 secretion by HaCat cells",[8],1090 pM
same,Kd,[9],150 pM
same,koff,[9],0.000222 s⁻¹
same,kon,[9],1.49e+06 M⁻¹ s⁻¹
same,Kd,[10],130 pM
same,koff,[10],0.00018 s⁻¹
same,kon,[10],1.37e+06 M⁻¹ s⁻¹
B8,"IC50, IL-36-stimulated IL-8 secretion by HaCat cells",[7],420 pM
same,"IC50, IL-36-stimulated IL-8 secretion by HaCat cells",[8],1050 pM
same,Kd,[9],130 pM
same,koff,[9],0.000244 s⁻¹
same,kon,[9],1.91e+06 M⁻¹ s⁻¹
same,Kd,[10],110 pM
same,koff,[10],0.000214 s⁻¹
same,kon,[10],1.92e+06 M⁻¹ s⁻¹
